The values below are quoted from earlier work in paper PMC7862380.

Series [1] addresses Met1-linked di-ubiquitin (Homo sapiens) (UniProt P0CG48).
In series [2] the target is Lys63-linked di-ubiquitin (Homo sapiens) (UniProt P0CG48).

Chain of OTULIN (Q96BN8 whole entry): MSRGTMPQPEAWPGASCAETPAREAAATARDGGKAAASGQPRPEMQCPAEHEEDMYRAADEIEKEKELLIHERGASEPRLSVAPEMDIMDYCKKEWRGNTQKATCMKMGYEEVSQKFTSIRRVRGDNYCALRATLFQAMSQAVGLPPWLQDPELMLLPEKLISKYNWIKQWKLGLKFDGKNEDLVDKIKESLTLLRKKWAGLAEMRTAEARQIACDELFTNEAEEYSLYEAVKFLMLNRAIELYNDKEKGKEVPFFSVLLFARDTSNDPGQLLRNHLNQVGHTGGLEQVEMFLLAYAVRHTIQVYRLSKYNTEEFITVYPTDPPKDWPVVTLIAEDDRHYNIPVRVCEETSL

As to OTULIN (from UniProt Q96BN8), the figures for the Kd in series [1] and in series [2] were 0.12 µM and 12 µM, respectively.
